Molecular target: WD-repeat protein-5 (WDR5), S22-334 (UniProt P61964 22-334)
Experiment: ITC

## GCARSEGFYTI [SET1B Win motif peptide (SET1BWin)]
  Kd: 100 nM

## GSARSEGYYPI [SET1A Win motif peptide (SET1AWin)]
  Kd: 260 nM

## GCARSEPKILT [MLL2 Win motif peptide (MLL2Win)]
  Kd: 160 nM

## GSARAEPKMSA [MLL3 Win motif peptide (MLL3Win), C4708S substituted]
  Kd: 2030 nM

## GAARAEVYLRK [MLL4 Win motif peptide (MLL4Win)]
  Kd: 30 nM

## GSARAEVHLRK [MLL1 Win motif peptide (MLL1Win)]
  Kd: 1130 nM

— PMC3351189 (Nucleic Acids Research, 2012)
